# Tests used:
# [1] = target: human melanocortin-4 receptor (human) (UniProt P32245); assay: cell-based or functional assay
# [2] = target: melanocortin-1 receptor (mouse (B-16 melanoma cells); in some instances human (hMC1-R)) (UniProt Q01727); assay: [I125]-NDP-α-MSH competition, MC1-R membranes
# [3] = target: human melanocortin-4 receptor (human) (UniProt P32245); assay: [I125]-NDP-α-MSH competition, hMC4-R HEK-293 membranes
# Chain of melanocortin-1 receptor (mouse (B-16 melanoma cells); in some instances human (hMC1-R)) (Q01727 whole entry): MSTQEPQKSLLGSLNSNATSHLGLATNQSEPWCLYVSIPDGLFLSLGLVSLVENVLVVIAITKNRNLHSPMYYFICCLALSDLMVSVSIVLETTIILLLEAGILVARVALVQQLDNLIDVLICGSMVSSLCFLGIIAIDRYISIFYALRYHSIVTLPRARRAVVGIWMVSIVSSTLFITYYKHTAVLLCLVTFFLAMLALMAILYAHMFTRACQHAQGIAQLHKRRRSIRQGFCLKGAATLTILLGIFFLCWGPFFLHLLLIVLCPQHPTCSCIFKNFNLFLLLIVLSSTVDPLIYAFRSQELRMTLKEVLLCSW
# Chain of human melanocortin-4 receptor (human) (P32245 whole entry): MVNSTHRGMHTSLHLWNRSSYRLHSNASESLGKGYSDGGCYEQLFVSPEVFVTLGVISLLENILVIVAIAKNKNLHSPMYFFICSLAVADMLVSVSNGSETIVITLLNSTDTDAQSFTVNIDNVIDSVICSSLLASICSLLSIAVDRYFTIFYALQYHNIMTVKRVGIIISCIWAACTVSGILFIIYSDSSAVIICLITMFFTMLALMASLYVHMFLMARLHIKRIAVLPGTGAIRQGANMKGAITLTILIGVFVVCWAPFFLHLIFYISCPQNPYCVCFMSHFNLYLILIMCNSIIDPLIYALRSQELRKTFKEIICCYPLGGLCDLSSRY
"EC50, cAMP, 0.1 ng/mL Doxycycline [1] [nM]","EC50, cAMP, 10 ng/mL Doxycycline [1] [nM]","Intrinsic Activity, cAMP, 0.1 ng/mL Doxycycline [1] [%]","Intrinsic Activity, cAMP, 10 ng/mL Doxycycline [1] [%]",Ki [2] [nM],Ki [3] [nM],Substance
0.065,0.06,83,90,0.5,0.25,Ac-Arg-cyclo(Glu-Dab-D-Phe(4-F)-Arg-Trp-Orn)-NH2 (peptide)
0.15,0.16,28,97,0.15,0.25,Ac-Arg-cyclo(Glu-Dab-D-Phe(4-OMe)-Arg-Trp-Orn)-NH2 (peptide)
1,0.153,41,98,143,1,Ac-Arg-cyclo(Glu-Hyp-D-Phe(2-Cl)-Arg-Trp-Orn)-NH2 (peptide)
–,0.55,6,90,430,2,Ac-Arg-cyclo(Glu-Hyp-D-Phe(3-Cl)-Arg-Trp-Orn)-NH2 (peptide)
–,0.5,8,93,880,2,Ac-Arg-cyclo(Glu-Hyp-D-Phe(4-CN)-Arg-Trp-Orn)-NH2 (peptide)
0.45,0.14,62,95,89,1,Ac-Arg-cyclo(Glu-Hyp-D-Phe(4-F)-Arg-Trp-Orn)-NH2 (peptide)
0.85,0.075,55,91,33,2,Ac-Arg-cyclo(Glu-Met(O2)-D-Phe(4-F)-Arg-Trp-Orn)-NH2 (peptide)
2,0.235,74,93,8,8,Ac-Arg-cyclo(Glu-Orn-D-Phe(2-Cl)-Arg-Trp-Orn)-OH (peptide)
10,0.8,28,98,23,20,Ac-Arg-cyclo(Glu-Orn-D-Phe(3-Cl)-Arg-Trp-Orn)-OH (peptide)
0.37,0.157,30,93,12,0.35,Ac-Arg-cyclo(Glu-Thr(Bzl)-D-Phe(2-Cl)-Arg-Trp-Orn)-NH2 (peptide)
0.21,0.085,94,94,2,1,Ac-D-Arg-cyclo(Orn-His-D-Phe(2-Cl)-Arg-Trp-Glu)-NH2 (peptide)
0.075,0.075,56,92,0.7,0.25,"Ac-D-Arg-cyclo(Orn-His-D-Phe(3,4-diF)-Arg-Trp-Glu)-NH2 (peptide)"
0.64,0.4,22,95,3,0.6,Ac-D-Arg-cyclo(Orn-His-D-Phe(3-Cl)-Arg-Trp-Glu)-NH2 (peptide)
0.325,0.2,31,99,6,0.6,Ac-D-Arg-cyclo(Orn-His-D-Phe(4-CN)-Arg-Trp-Glu)-NH2 (peptide)
0.25,0.095,89,100,1,0.65,Ac-D-Arg-cyclo(Orn-His-D-Phe(4-F)-Arg-Trp-Glu)-NH2 (peptide)

# — patent publication US20100311648A1
